US20060039859A1
Square brackets hold non-standard residues; d marks the D form. Ends that are not written are not given here.

Molecular target: Aβ1-40 fibrils (Homo sapiens (Human)) (UniProt P05067)
Test: saturation radioligand binding to Aβ fibrils in PBS, RT 90 min, Centricon 100 kDa filtration

Aβ1-40 fibrils (Homo sapiens (Human)), sequence (P05067 672-711 limits assumed): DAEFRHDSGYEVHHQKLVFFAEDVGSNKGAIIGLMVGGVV

Kd: 352 nM
B1: 99mTc-peptide (technetium-99m-labeled BBB permeant Aβ-targeted peptide KKLVFFAεKGC) (peptide)
peptide: [dK][dK][dL][dV][dF][dF][dA]KG[dC]
modifications: not fully specified (residue 8); printed as KKLVFFAεKGC; also: 99mTc chelated by εKGC (N3S core)
